Test results from patent publication US20180049457A1, “ENZYMATIC SYNTHESIS OF SOLUBLE GLUCAN FIBER” (E I DU PONT DE NEMOURS AND COMPANY, priority 2014, published 2018).

B1: GTF4491T5: T5 C-terminal truncation of GTF4491, SEQ ID NO: 122, strain SG1321 (protein)
chain: INGKQYYVNSDGSVRKNFVFEQDGKSYYFDAETGALATKSQDEFSTEPIKATVDFSSGNQLYKNDDKSLDQLDTFITADAWYRPKSILKDGKTWTASTEADKRPLLMVWWPDKSTQVNYLNYMQNQGLGAGSFSTNSSQESLDQAAKAVQTKIEERIAREGNTNWLRTSIDQFIKTQPGWNSSTENSSYDHLQGGQLLFNNSKGDTGNRTSHANSDYRLLNRTPTNQTGTRKYFKDNSIGGLEFLLANDIDNSNPAVQAEQLNWLHFMMNIGSIMANDPTANFDGLRVDALDNVDADLLQIASDYFKAAYGVDKSEANAIKHLSYLEAWSANDPYYNKDTKGAQLPIDNALRNALTNLLMRDKNTRMQLGDMTAFINSSLNPRGANDKNGERMANYIFTRAHDTEAQTIIQRIIRDRINPNLFGYNFTRDEIKKAFEIYNEDIDKAHKTYASYNLPSVYALMLTNKDSVTRVYYGDLYREDGHYMAKKTPYFDAIDTLLRARIKYVAGGQDMEVKKVGNDGLLTSVRYGKGANNRTDLGTSETRTQGMGVIMTNNYDFRLGSNETVTMNMGRAHRNQLYRPLLLTTKDGIATYLNDSDVPKNLLKRTDWNGNLTFNANDVFGVENVQVSGYLGVWVPYGAKANQDARTQPSNRANSDGQVYKSSAALDSQVMYEAFSNFQAFADDQPELYMNRVLAKNTDLLKAWGITSVGLPPQYVSSKDGTFLDSIIDNGYAFDDRYDMALSQNNKYGSLEDLLNVLRALHKDGIQAIADWVPDQIYNLPGKEVVNATRVNGYGYHQQGYQIVDQAYVANTRTDGTDYQGKYGGAFLDELKAKYPSIFNRVQISNGKQLPTNEKITKWSAKYFNGTNILGRGINFVLRDDKTNQYFNTSANSQLLPTPLRDTGAITSTQVFQRRGQDVYFLRDNQTVKNEFVQDGNGNWYYFGGDGKMTKGAQNINSKDYYFFDNGVQLRNALRRASNGYTYYYGLDGAMVKNAFVDFDDKHKQ
modifications: T5 C-terminal truncation of GTF4491
B2: GTF3808T5: T5 C-terminal truncation of GTF3808, SEQ ID NO: 124, strain SG1330 (protein)
chain: INGKQYYVNSDGSVRKNFVFEQDGKSYYFDAETGALATKSQDEFSTEPIKATVDFSSGNQLYKNDDKSLDQLDTFITADAWYRPKSILKDGKTWTASTEADKRPLLMVWWPDKSTQVNYLNYMQNQGLGAGSFSTNSSQESLDQAAKMVQTKIEERIAREGNTNWLRTSIDQFIKTQPGWNSSTENSSYDHLQGGQLLFNNSKGDTGNRTSHANSDYRLLNRTPTNQTGTRKYFKDNSIGGLEFLLANDIDNSNPAVQAEQLNWLHFMMNIGSIMANDPTANFDGLRVDALDNVDADLLQIASDYFKAAYGVDKSEANAIKHLSYLEAWSANDPYYNKDTKGAQLPIDNALRNALTNLLMRDKNTRMQLGDMTAFINSSLNPRGANDKNGERMANYIFTRAHDTEAQTIIQRIIRDRINPNLFGYNFTRDEIKKAFEIYNEDIDKAHKTYASYNLPSVYALMLTNKDSVTRVYYGDLYREDGHYMAKKTPYFDAIDTLLRARIKYVAGGQDMEVKKVGNDGLLTSVRYGKGANNRTDLGTSETRTQGMGVIMTNNYDFRLGSNETVTMNMGRAHRNQLYRPLLLTTKDGIATYLNDSDVPKNLLKRTDWNGNLTFNANDVFGVENVQVSGYLGVWVPYGAKANQDARTQPSNRANSDGQVYKSSAALDSQVMYEAFSNFQAFADDQPELYMNRVLAKNTDLLKAWGITSVGLPPQYVSSKDGTFLDSTIDNGYAFDDRYDMALSQNNKYGSLEDLLNVLRALHKDGIQAIADWVPDQIYNLPGKEVVNATRVNGYGNHQVGYQIIDQAYVANTRTDGTDYQGKYGGAFLDELKAKYPSIFNRVQISNGKQLPTNEKITKWSAKYFNGTNILGRGINYVLRDDKTNQYFNTSANSQLLPTPLRDTGAITSTQVFQRRGQDVYFLRDNQAVKNEFVQDGNGNWYYFGGDGKMTKGAQNINNKDYYFFDNGIQLRNALRRASNGYTYYYGLDGAMVKNAFVDFDDKHKQ
modifications: T5 C-terminal truncation of GTF3808
B3: GTF4491T4: T4 C-terminal truncation of GTF4491, SEQ ID NO: 132, strain SG1320 (protein)
chain: INGKQYYVNSDGSVRKNFVFEQDGKSYYFDAETGALATKSQDEFSTEPIKATVDFSSGNQLYKNDDKSLDQLDTFITADAWYRPKSILKDGKTWTASTEADKRPLLMVWWPDKSTQVNYLNYMQNQGLGAGSFSTNSSQESLDQAAKAVQTKIEERIAREGNTNWLRTSIDQFIKTQPGWNSSTENSSYDHLQGGQLLFNNSKGDTGNRTSHANSDYRLLNRTPTNQTGTRKYFKDNSIGGLEFLLANDIDNSNPAVQAEQLNWLHFMMNIGSIMANDPTANFDGLRVDALDNVDADLLQIASDYFKAAYGVDKSEANAIKHLSYLEAWSANDPYYNKDTKGAQLPIDNALRNALTNLLMRDKNTRMQLGDMTAFINSSLNPRGANDKNGERMANYIFTRAHDTEAQTIIQRIIRDRINPNLFGYNFTRDEIKKAFEIYNEDIDKAHKTYASYNLPSVYALMLTNKDSVTRVYYGDLYREDGHYMAKKTPYFDAIDTLLRARIKYVAGGQDMEVKKVGNDGLLTSVRYGKGANNRTDLGTSETRTQGMGVIMTNNYDFRLGSNETVTMNMGRAHRNQLYRPLLLTTKDGIATYLNDSDVPKNLLKRTDWNGNLTFNANDVFGVENVQVSGYLGVWVPYGAKANQDARTQPSNRANSDGQVYKSSAALDSQVMYEAFSNFQAFADDQPELYMNRVLAKNTDLLKAWGITSVGLPPQYVSSKDGTFLDSIIDNGYAFDDRYDMALSQNNKYGSLEDLLNVLRALHKDGIQAIADWVPDQIYNLPGKEVVNATRVNGYGYHQQGYQIVDQAYVANTRTDGTDYQGKYGGAFLDELKAKYPSIFNRVQISNGKQLPTNEKITKWSAKYFNGTNILGRGINFVLRDDKTNQYFNTSANSQLLPTPLRDTGAITSTQVFQRRGQDVYFLRDNQTVKNEFVQDGNGNWYYFGGDGKMTKGAQNINSKDYYFFDNGVQLRNALRRASNGYTYYYGLDGAMVKNAFVDFDDKHK
modifications: T4 C-terminal truncation of GTF4491
B4: GTF4491NT: N terminal-only truncated GTF4491 from Streptococcus salivarius JIM8777, SEQ ID NO: 106, strain SG1292 (protein)
chain: INGKQYYVNSDGSVRKNFVFEQDGKSYYFDAETGALATKSQDEFSTEPIKATVDFSSGNQLYKNDDKSLDQLDTFITADAWYRPKSILKDGKTWTASTEADKRPLLMVWWPDKSTQVNYLNYMQNQGLGAGSFSTNSSQESLDQAAKAVQTKIEERIAREGNTNWLRTSIDQFIKTQPGWNSSTENSSYDHLQGGQLLFNNSKGDTGNRTSHANSDYRLLNRTPTNQTGTRKYFKDNSIGGLEFLLANDIDNSNPAVQAEQLNWLHFMMNIGSIMANDPTANFDGLRVDALDNVDADLLQIASDYFKAAYGVDKSEANAIKHLSYLEAWSANDPYYNKDTKGAQLPIDNALRNALTNLLMRDKNTRMQLGDMTAFINSSLNPRGANDKNGERMANYIFTRAHDTEAQTIIQRIIRDRINPNLFGYNFTRDEIKKAFEIYNEDIDKAHKTYASYNLPSVYALMLTNKDSVTRVYYGDLYREDGHYMAKKTPYFDAIDTLLRARIKYVAGGQDMEVKKVGNDGLLTSVRYGKGANNRTDLGTSETRTQGMGVIMTNNYDFRLGSNETVTMNMGRAHRNQLYRPLLLTTKDGIATYLNDSDVPKNLLKRTDWNGNLTFNANDVFGVENVQVSGYLGVWVPYGAKANQDARTQPSNRANSDGQVYKSSAALDSQVMYEAFSNFQAFADDQPELYMNRVLAKNTDLLKAWGITSVGLPPQYVSSKDGTFLDSIIDNGYAFDDRYDMALSQNNKYGSLEDLLNVLRALHKDGIQAIADWVPDQIYNLPGKEVVNATRVNGYGYHQQGYQIVDQAYVANTRTDGTDYQGKYGGAFLDELKAKYPSIFNRVQISNGKQLPTNEKITKWSAKYFNGTNILGRGINFVLRDDKTNQYFNTSANSQLLPTPLRDTGAITSTQVFQRRGQDVYFLRDNQTVKNEFVQDGNGNWYYFGGDGKMTKGAQNINSKDYYFFDNGVQLRNALRRASNGYTYYYGLDGAMVKNAFVDFDDKHKQVRAFTTQGTMVVGNLHWSGHHFYFDRETGIQAKDRVVRTDDGKLHYYVAETGDMGRNVFATDSSTGKRYYFDADGNTVTGSRVIDGKTYYFNQDGSVGTAYSNRADSIIFENGKARYITPAGEIGRSIFVYNPATKAWNYFDKEGNRVTGRQYIDGHLYYFKEDGSQAKGEIIEENGIKYYYEPESGILASGRYLQVGDDQWMYFKQDGSLAIGQVRADHGYLKYFDKNGIQVKGKTVVEDGKTYYYDAHSGALVTSSFAEIAPNQWSYFNTDGQALKGKWTINGKEYYFDENGIQYKGKAIKVGSRYKYYDENDGQPVTNRFAQIEPNVWAYFGADCYAVTGEQVINGQHLYFDENGRQVKGAYVTVNGQRRYYDANTGEYVPGR
modifications: Streptococcus salivarius JIM8777

Test: GTF activity of strains (PAHBAH assay)
Assay type: biochemical
Conditions: enzyme expressed in B. subtilis host
Protocol: GTF activity of the strains was analyzed by PAHBAH assay in three separate experiments. Due to minor variations between the expeirments, Table 2 lists the activity of the truncated enzymes in the B. subtilis host along with the experiment in which the activity was measured. Most of the T1, T2, and T6 truncations decreased the activity of the enzymes, whereas the T4 and T5 C-terminal truncations retained similar activity relative to the respective N terminal-only truncations (NT). […] To identify specific amino acid residues within the catalytic domain that may be involved in producing the soluble α-glucan fiber, we analyzed the crystal structures (PDB Identifiers: 3AIB, 3AIC, and 3HZ3) of the catalytic domains of three glucosyltransferases to identify residues within 8 Angstroms of the bound ligand. 57 residues met that criterion. A motif was generated based on the corresponding 57 amino acids in GTF0459 and each of the identified homologs. The motif was then used to generate a consensus sequence to capture the variability in the catalytic domains of GTF0459 and the identified homologs. The consensus sequence is provided as SEQ ID NO: 153.

Row | Molecule | GTF activity of strains: Acitivity (Experiment Number 2) [U/mL] | GTF activity of strains: Acitivity (Experiment Number 3) [U/mL] | GTF activity of strains: Acitivity (Experiment Number 1) [U/mL]
1 | B1 | 50.6 | – | –
2 | B2 | – | 36.2 | –
3 | B3 | 45.3 | – | –
4 | B4 | 53.1 | – | 42.3
